Reference: the supplement of paper PMC12042874
± gives the uncertainty stated by the source.

Test: amyloid nucleation score (Sup35N fusion, yeast selection) (log enrichment); library NNK2; higher = more nucleation; inactive = no reads after selection
Outline: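 Psi-negative yeast expressed Sup35N fused to peptides of 20 random codons. They were induced 24 hours with 100 μM copper sulfate, grown 7 days at 30°C without adenine and uracil, and their plasmid inserts from input and output were Illumina-sequenced. The nucleation score is the DiMSum log enrichment of output over input reads, centred on the mode score of non-aggregating sequences. Sequences with under 100 input reads were excluded.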

| Substance | amyloid nucleation score |
| --- | --- |
| DVVCRMRATYCWALRVMGQR | 1.58 ± 0.29 |
| DVYSSVRVNYT | -0.386 ± 0.56 |
| DVYTQASLGMS | inactive |
| DWFGLCFMKRFKFGEYKACM | -1.04 ± 0.48 |
| DWTDCYWMLRDTGGFSIS | -1.35 ± 0.78 |
| DYCSYTAL | -0.081 ± 1.1 |
| DYIFGYSTILFVMLCIHNFY | -1.35 ± 0.78 |
| DYLKLLAYNVLFR | inactive |
| DYMFIDLASSNTNLRSWSHS | -0.408 ± 0.37 |
| DYSRLSLGICEVDDCTLRMV | -0.761 ± 0.39 |
| DYWFRGAESCTCGLE | 0.012 ± 0.63 |
| DYYNRVISASVYSLGGCC | 2.82 ± 0.075 |
| DYYYIPSSIVSTIFKEFSPL | -1.97 ± 0.78 |
| EALSKLFFYSWERSFHNGEG | 2.11 ± 0.11 |
| EARSGVNGRARSMFLIGRYS | -0.262 ± 0.63 |
| ECCQILCGSYWYIKYLSYDC | 1.8 ± 0.13 |
| EDELSPF | 0.453 ± 0.18 |
| EDITI | -1.67 ± 0.41 |
| EEKEVDVEVGRETHMSARDN | 0.563 ± 0.15 |
| EELAPSCAEDEILILSMLIN | -0.592 ± 0.76 |
| EELSIQRALLVCPKKEGFLE | 3.69 ± 0.082 |
| EEVQAFI | -0.22 ± 0.48 |
| EEWNRRANMGFLNYFETHGG | -1.14 ± 1 |
| EFILHVTQIAAIMDLRLVHM | 4.01 ± 0.11 |
| EFLLYRTSVP | -0.205 ± 0.76 |
| EFNYHVQRSLFSR | 0.285 ± 0.65 |

| Substance | amyloid nucleation score |
| --- | --- |
| EFSIHAGLM | 0.222 ± 0.46 |
| EFYFG | 0.599 ± 0.8 |
| EGIVAMAERYYSSNIRAVTW | 0.296 ± 0.32 |
| EGRVFTGEGRYECCSCFGLL | -0.752 ± 0.64 |
| EHRSVRDLKRMQCEIYSRGV | 0.191 ± 0.8 |
| EHVGVTTVPIPLGMGLTWWC | 0.309 ± 0.16 |
| EIARLTNLDWTNISTFL | -0.698 ± 1.1 |
| EIHGMCTLYIFNSRPYIYPG | 6.594 ± 0.035 |
| EILTNQYFCRLWVMGTFYID | -1.19 ± 1 |
| EITEDSMVLVRWSGARNFHM | 2.56 ± 0.15 |
| EKVNLSTSCRVA | 0.664 ± 0.34 |
| ELAHQNENFRGRRFVAQ | -0.038 ± 1.1 |
| ELDGYLVLFFTGLNP | -0.418 ± 0.63 |
| ELGFGMMIAPSKGEKGDGML | 3.37 ± 0.12 |
| ELGVTNLDVDRHIDY | -0.038 ± 1.1 |
| ELGYCYSFGHSQFFKQSKHG | 3.03 ± 0.071 |
| ELLSRETIKDHWMTIIKYFL | -0.143 ± 0.74 |
| ELVRDGYTPFLFLILETVVM | -0.202 ± 0.49 |
| EMCGATRG | 3.28 ± 0.085 |
| EMIIL | -0.259 ± 0.32 |
| EMSFSLTYSRSRHFRSGGTA | 6.32 ± 0.064 |
| EMVRTTMSWPYMFS | -0.47 ± 1.1 |
| ENERNML | -0.11 ± 0.29 |
| ENSANNLGMFERSSRYRLSG | 0.356 ± 0.34 |
| ENVFDCNRFY | inactive |
| EPKFCGMDNHEL | 3.78 ± 0.14 |

| Substance | amyloid nucleation score |
| --- | --- |
| EQKGSVTYCGYKMSDV | 4.97 ± 0.062 |
| ERFHIVLHMVIDDRVSFGCV | 2.96 ± 0.12 |
| ERSNFWPRVQTPCESVA | 0.016 ± 1.1 |
| ERVDVI | -0.364 ± 0.32 |
| ESASTVTVCLRRVKVSHR | 5.204 ± 0.045 |
| ESDVSRDRMMALRNMYFCHR | 0.192 ± 0.74 |
| ESGVWCKAPFYMSVTLSIHS | -0.487 ± 0.56 |
| ESIVDWSYCFLTTFMSPRWA | 0.193 ± 0.65 |
| ESMLSEFFWDHS | 3.07 ± 0.072 |
| ESNKRTTCLFH | 0.331 ± 0.32 |
| ESRHSSLFHHPE | 0.119 ± 0.65 |
| ESTLDC | 0.343 ± 0.41 |
| ESVRASPV | 0.093 ± 0.28 |
| ETHFVTKDLASSLGKLAHPY | 8.848 ± 0.069 |
| EVTSTY | 0.501 ± 0.46 |
| EWILTELYHWFNFFYCRDGV | -1.2 ± 1.1 |
| EWLTLTDIFT | -0.619 ± 1 |
| EWRGMLLVSTRLVKDIVR | -0.553 ± 0.35 |
| EWTLWSSGLRAES | 0.217 ± 0.3 |
| EYFFYLLSSIMHIE | 2.45 ± 0.1 |
| FAFICTR | inactive |
| FAFYRSFCWRVTWFSWVGGS | inactive |
| FAHERHTIYRQVSIMMWRSM | 0.426 ± 0.25 |
| FALHGEFFYHKKRSQGFRAH | -1.36 ± 0.61 |
| FALNLFCEDKCLYCSLVSS | 2.92 ± 0.066 |
| FARSFPRFRTESFDCKECRG | inactive |

| Substance | amyloid nucleation score |
| --- | --- |
| FATQGSHKAVLGRSVHHLCR | -0.447 ± 0.61 |
| FAVKGCNFGTGVFMRVE | 0.021 ± 0.34 |
| FAYSLHRLLWIRCMYSNGR | 1.45 ± 0.17 |
| FCFISSYVPKLYSLKSQVVI | -0.988 ± 0.39 |
| FCFMIEGIFMCRLLLSRASF | inactive |
| FCLLPIDQPVTGIFLVR | -0.158 ± 0.63 |
| FCNNWDFF | 2.41 ± 0.14 |
| FCSDGK | 0.186 ± 0.3 |
| FCSVCDRL | 0.168 ± 0.23 |
| FCWNYMFVFRIGCFGFDFIG | inactive |
| FCWRYNSKIRLKHGQDSGPR | -0.343 ± 0.33 |
| FDCRNIREMHTRVYNSCTHP | -0.266 ± 1 |
| FDGHLINTFPRADASIAEDN | -0.454 ± 0.41 |
| FDKASLKFCVMLVVRSV | 0.236 ± 1.1 |
| FDLAMGVSLVKRLRLVLCLS | -1.12 ± 0.64 |
| FDLNYPSVSIIGKVLCSGPV | inactive |
| FDMEIFTYGGTSNNFGHCDD | inactive |
| FDMVSVVVYMRAVTTKCGPS | 1.73 ± 0.24 |
| FDSYTIMVI | 0.682 ± 0.21 |
| FDVKGRISLNRYSINFNARL | 5.11 ± 0.073 |
| FEDFLCFSGMRFVFELCADT | -0.917 ± 0.78 |
| FEGWVWFIPEASEHSYEHVN | -0.002 ± 1 |
| FEKEWYSGLCFARAVARGMR | 2.97 ± 0.17 |
| FEQRGVTSRLCSPLSYEERM | -0.82 ± 0.3 |
| FERLNYQLREFYKVIKFSCV | inactive |
| FEVFLM | -0.499 ± 0.41 |

| Substance | amyloid nucleation score |
| --- | --- |
| FEVLIFVDCWFVVMGRETLN | 2.68 ± 0.15 |
| FFFLTHGWEPTVMKEIKSAM | inactive |
| FFGALNWGLKQE | 0.646 ± 0.43 |
| FFGGNCKVK | -0.146 ± 0.32 |
| FFGLVNWVGLGVHRSMTFAK | -0.609 ± 0.41 |
| FFGTMV | -0.19 ± 0.37 |
| FFGYAGCNRPVNLSYGGRFN | -0.952 ± 0.32 |
| FFHYVNAQVRGWLCTVYIIR | -0.574 ± 0.55 |
| FFIESSMLWYWDLKRYPMTL | -0.225 ± 0.54 |
| FFKRSSFKMGSRITETRYRR | -0.728 ± 0.56 |
| FFLIRSMGSSSAYRLRVCWR | -0.37 ± 0.76 |
| FFMIEMPVKSTFVGWSRSEG | -0.074 ± 0.25 |
| FFPPFVNLGVGTYQV | -1.37 ± 0.54 |
| FFRNIIYRCMREIKFIEPSE | -0.046 ± 0.63 |
| FFSSTMNCVSLKRVKL | -0.432 ± 1.1 |
| FFTSSHNFCYLMGYNMIWFK | inactive |
| FFYFTMWNKHFEFVYNSSPC | -0.613 ± 0.64 |
| FFYSGRGYTDKWHMGSLPRC | -0.964 ± 0.76 |
| FFYYMRSIT | -1.9 ± 0.78 |
| FGGIASMMFVEMRRGSINEM | 3.51 ± 0.045 |
| FGICLVMRFLWYESSTPWED | -0.446 ± 1 |
| FGKPGPRFLSSPGFSYP | 0.382 ± 0.51 |
| FGLLYYAYNRFMLARINGHT | -0.261 ± 1.1 |
